Laboratory results taken from patent US20050002935A1.
Values belong to the binder of their own block, whether it stands above or below them.

Biological target: B7-H3 receptor on human CD4+ T cells (human)
Experiment: cell-based or functional assay

GM-CSF level reduced relative to GFP controls (multiplex ELISA, 72 h): 65%
IFN-γ level reduced relative to GFP controls (multiplex ELISA, 72 h): 85%
IL-10 level reduced relative to GFP controls (multiplex ELISA, 72 h): 81%
TNF-α level reduced relative to GFP controls (multiplex ELISA, 72 h): 69%
B1: human B7-H3 VC (expressed on CHO.HLA-DR2 transfectants) (ligand)
chain: LEVQVPEDPVVALVGTDATLCCSFSPEPGFSLAQLNLIWQLTDTKQLVHSFAEGQDQGSAYANRTALFPDLLAQGNASLRLQRVRVADEGSFTCFVSIRDFGSAAVSLQVAAPYSKPSMTLEPNKDLRPGDTVTITCSSYRGYPEAEVFWQDGQGVPLTGNVTTSQMANEQGLFDVHSVLRVVLGANGTYSCLVRNPVLQQDAHGSVTITGQPMTFPPEALWVTVGLSVCLIALLVALAFVCWRKIKQSCEEENAGAEDQDGEGEGSKTALQPLKHSDSKEDDGQEIA

GM-CSF level reduced relative to GFP controls (multiplex ELISA, 72 h): 65%
IFN-γ level reduced relative to GFP controls (multiplex ELISA, 72 h): 85%
IL-10 level reduced relative to GFP controls (multiplex ELISA, 72 h): 81%
TNF-α level reduced relative to GFP controls (multiplex ELISA, 72 h): 69%
B2: human B7-H3 VCVC (expressed on CHO.HLA-DR2 transfectants) (ligand)
chain: LEVQVPEDPVVALVGTDATLCCSFSPEPGFSLAQLNLIWQLTDTKQLVHSFAEGQDQGSAYANRTALFPDLLAQGNASLRLQRVRVADEGSFTCFVSIRDFGSAAVSLQVAAPYSKPSMTLEPNKDLRPGDTVTITCSSYQGYPEAEVFWQDGQGVPLTGNVTTSQMANEQGLFDVHSILRVVLGANGTYSCLVRNPVLQQDAHSSVTITPQRSPTGAVEVQVPEDPVVALVGTDATLRCSFSPEPGFSLAQLNLIWQLTDTKQLVHSFTEGRDQGSAYANRTALFPDLLAQGNASLRLQRVRVADEGSFTCFVSIRDFGSAAVSLQVAAPYSKPSMTLEPNKDLRPGDTVTITCSSYRGYPEAEVFWQDGQGVPLTGNVTTSQMANEQGLFDVHSVLRVVLGANGTYSCLVRNPVLQQDAHGSVTITGQPMTFPPEALWVTVGLSVCLIALLVALAFVCWRKIKQSCEEENAGAEDQDGEGEGSKTALQPLKHSDSKEDDGQEIA
